Source: patent US10544421 (NEW YORK STRUCTURAL BIOLOGY CENTER, dated 2020)

Target: T1, recombinant human acetylcholinesterase (rhAChE), cleaved protein from codon 33 to codon 574 (human, UniProt P22303 33-574)
T1 construct: range 33-574; Expressed in HEK 293-H cells, secreted, tag removed with his-TEV protease; also called purified rhAChE; human AChE
Test: co-crystal of rhAChE complexed with fasciculin-2, X-ray crystallography (PDB 4EY8)
Experimental: A crystallization buffer 44 is provided. The preferred crystallization buffer 44 contains 15-21% polyethylene glycol (PEG) 3350 and 0.17-0.21M potassium nitrate. Crystals of rhAChE are grown by sitting drop vapor diffusion at 22° C. against the crystallization buffer 44. See Block 46. Clustered hexagonal rod-shaped crystals (20×20×600 µm) are typically nucleated within 5 days and grow to full size within 3 days. Once the crystals are full size, they are harvested and flash frozen using liquid nitrogen. See Block 48. The harvested crystals 10 can then be cut and subjected to X-ray crystallography and modeling in the traditional manner. See Block 50. Since the rhAChE crystals 10 are not complexed, the X-ray crystallography produces models that more accurately represent AChE in the human brain. Additionally, the active sites that are obfuscated by snake venom in the prior art are open and active.
Referring to FIG. 4 in conjunction with FIG. 1, it will be understood that in order to complex the rhAChE crystals 10, a small volume of the complexing ligand 52 is added to the crystallization buffer 44 to create a modified crystallization buffer 54. Crystals of complexed rhAChE are grown by sitting drop vapor diffusion against the modified crystallization buffer 54. The crystals are then grown, harvested and imaged in the manner previously described.

B1: fasciculin-2 (other)
chain: TMCYSHTTTSRAILTNCGENSCYRKSRRHPPKMVLGRGCGCPPGDDNLEVKCCTSPDKCNY
notes: Used as the complexing ligand in rhAChE crystals; also called snake venom fasciculin-2
binding result: binds
